Experimental findings from PMC6531468, “Combinatorial recognition of clustered RNA elements by the multidomain RNA-binding protein IMP3” are described below.

Numbering of substitutions follows the chain as printed.

The target of data set [1] is T1, IMP3 full-length (Homo sapiens, UniProt O00425 1-579). Description: EMSA; EMSA: 10 mM Tris-HCl pH 7.5, 150 mM NaCl, 0.5 mM EDTA, 0.5 mM DTT, 0.1% NP-40, 5% glycerol, tRNA+BSA, 5 nM RNA, 30 min RT then ice; ITC/NMR: 20 mM Bis-Tris, 150 mM NaCl, 2 mM TCEP (protein buffer pH 6.5), ITC RT, NMR 25 C. The note with it: protein: recombinant; tags: N-terminal GST (pGEX-6P2); C-terminal His6 removed by TEV; label: 32P-UTP. On the technique in general: In EMSA bound probe runs differently from free probe, usually more slowly.

The target of a further data set is IMP3 RRM1-2 (Homo sapiens, UniProt O00425 2-156). Nature of the data set: ITC; EMSA: 10 mM Tris-HCl pH 7.5, 150 mM NaCl, 0.5 mM EDTA, 0.5 mM DTT, 0.1% NP-40, 5% glycerol, tRNA+BSA, 5 nM RNA, 30 min RT then ice; ITC/NMR: 20 mM Bis-Tris, 150 mM NaCl, 2 mM TCEP (protein buffer pH 6.5), ITC RT, NMR 25 C. The following applies: protein: recombinant; tags: Trx-His6 removed by TEV; primer note: GA-MA-K3 N-terminus. On the technique in general: Isothermal titration calorimetry measures the heat released or taken up as one component is titrated into another.

A further data set concerns the target IMP3 dKH1-2 (Homo sapiens, UniProt O00425 1-579, K213D;E214D;K294D;E295D). Nature of the data set: EMSA; Hill n 1.9; EMSA: 10 mM Tris-HCl pH 7.5, 150 mM NaCl, 0.5 mM EDTA, 0.5 mM DTT, 0.1% NP-40, 5% glycerol, tRNA+BSA, 5 nM RNA, 30 min RT then ice; ITC/NMR: 20 mM Bis-Tris, 150 mM NaCl, 2 mM TCEP (protein buffer pH 6.5), ITC RT, NMR 25 C. The note with it: protein: recombinant; tags: GST; label: 32P-UTP.

Another data set concerns the target IMP3 dRRM1 (Homo sapiens, UniProt O00425 1-579, Y5A;Y39A;F41A). Nature of the data set: EMSA; Hill n 2.8; EMSA: 10 mM Tris-HCl pH 7.5, 150 mM NaCl, 0.5 mM EDTA, 0.5 mM DTT, 0.1% NP-40, 5% glycerol, tRNA+BSA, 5 nM RNA, 30 min RT then ice; ITC/NMR: 20 mM Bis-Tris, 150 mM NaCl, 2 mM TCEP (protein buffer pH 6.5), ITC RT, NMR 25 C. The following applies: protein: recombinant; tags: GST; label: 32P-UTP.

Data set [2] has as its target T1, IMP3 full-length. Nature of the data set: EMSA; tRNA and BSA competitors; EMSA: 10 mM Tris-HCl pH 7.5, 150 mM NaCl, 0.5 mM EDTA, 0.5 mM DTT, 0.1% NP-40, 5% glycerol, tRNA+BSA, 5 nM RNA, 30 min RT then ice; ITC/NMR: 20 mM Bis-Tris, 150 mM NaCl, 2 mM TCEP (protein buffer pH 6.5), ITC RT, NMR 25 C. The note with it: protein: recombinant; tags: N-terminal GST (pGEX-6P2); C-terminal His6 removed by TEV; label: 32P-UTP.

A further data set deals with IMP3 KH1-d2 (Homo sapiens, UniProt O00425 192-355, K294D;E295D). Nature of the data set: ITC; EMSA: 10 mM Tris-HCl pH 7.5, 150 mM NaCl, 0.5 mM EDTA, 0.5 mM DTT, 0.1% NP-40, 5% glycerol, tRNA+BSA, 5 nM RNA, 30 min RT then ice; ITC/NMR: 20 mM Bis-Tris, 150 mM NaCl, 2 mM TCEP (protein buffer pH 6.5), ITC RT, NMR 25 C. The following applies: protein: recombinant; tags: Trx-His6 removed by TEV, leaves GAMA.

For another data set, the target named is IMP3 KHd1-2 (Homo sapiens, UniProt O00425 192-355, K213D;E214D). The data set is described as above. The note with it: protein: recombinant; tags: Trx-His6 removed by TEV, leaves GAMA.
For another data set, the target named is IMP3 KH1-2 WT (Homo sapiens, UniProt O00425 192-355). The description is as above. The note with it: protein: recombinant; tags: Trx-His6 removed by TEV, leaves GAMA.

What is called Kd is a measure of binding affinity in units of concentration.

Sequence of IMP3 RRM1-2 (O00425 2-156): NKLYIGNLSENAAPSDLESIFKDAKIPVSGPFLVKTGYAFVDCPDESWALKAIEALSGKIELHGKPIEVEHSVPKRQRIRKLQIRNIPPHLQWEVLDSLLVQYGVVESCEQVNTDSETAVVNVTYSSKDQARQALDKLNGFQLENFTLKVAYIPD
T1 sequence (O00425 whole entry): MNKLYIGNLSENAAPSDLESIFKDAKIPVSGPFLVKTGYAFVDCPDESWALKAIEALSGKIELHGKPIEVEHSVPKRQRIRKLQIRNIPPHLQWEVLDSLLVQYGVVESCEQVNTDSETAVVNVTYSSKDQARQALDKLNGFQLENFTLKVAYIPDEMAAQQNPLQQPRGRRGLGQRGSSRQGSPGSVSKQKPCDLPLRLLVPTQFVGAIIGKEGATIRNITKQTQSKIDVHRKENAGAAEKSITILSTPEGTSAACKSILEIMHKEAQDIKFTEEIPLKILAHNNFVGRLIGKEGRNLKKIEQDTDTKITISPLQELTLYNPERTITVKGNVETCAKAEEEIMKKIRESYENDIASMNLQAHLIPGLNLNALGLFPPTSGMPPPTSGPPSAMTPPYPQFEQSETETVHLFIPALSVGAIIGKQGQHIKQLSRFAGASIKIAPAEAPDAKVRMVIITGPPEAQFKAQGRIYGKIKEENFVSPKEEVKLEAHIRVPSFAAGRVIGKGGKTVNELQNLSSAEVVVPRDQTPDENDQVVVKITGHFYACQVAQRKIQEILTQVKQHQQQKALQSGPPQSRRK
Sequence of IMP3 KH1-d2 (O00425 192-355 K294D/E295D): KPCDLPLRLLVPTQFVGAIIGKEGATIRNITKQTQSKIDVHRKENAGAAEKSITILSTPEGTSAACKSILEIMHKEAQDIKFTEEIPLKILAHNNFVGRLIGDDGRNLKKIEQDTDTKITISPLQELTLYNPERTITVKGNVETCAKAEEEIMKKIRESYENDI
Sequence of IMP3 dRRM1 (O00425 whole entry Y5A/Y39A/F41A): as the sequence (O00425 whole entry) above, with Y5A, Y39A, F41A counted along it
Sequence of IMP3 KHd1-2 (O00425 192-355 K213D/E214D): as the sequence (O00425 192-355 K294D/E295D) above, with K22D, E23D, D103K, D104E counted along it
Sequence of IMP3 dKH1-2 (O00425 whole entry K213D/E214D/K294D/E295D): as the sequence (O00425 whole entry) above, with K213D, E214D, K294D, E295D counted along it
Sequence of IMP3 KH1-2 WT (O00425 192-355): as the sequence (O00425 192-355 K294D/E295D) above, with D103K, D104E counted along it

B1: 101-mer (CA)4<-> (ssRNA)
RNA: GGGAGGGACACACACAGGAAGGCAAUUUUGGAGGAACUACAGAACACAUAUCGCAGCUAAAACACAAUUUUGGAGGAACUACAGAAUGCGGCUAUCAAGGG
Take B1: the Kd with IMP3 full-length [1] was found to be 5.6 ± 0.8 nM.

B2: (CA)5 (ssRNA)
RNA: CACACACACA
For the molecule B2, in the data set with IMP3 RRM1-2, the Kd was 9000 ± 2000 nM.

B3: (CA)3 (ssRNA)
RNA: CACACA
Take B3: the Kd with IMP3 RRM1-2 worked out at 8000 ± 3000 nM.

B4: 101-mer (ssRNA)
RNA: GGGAGGGAGGAAGGCAAUUUUGGAGGAACUACAGAACACAUAUCGCAGCUAAAACACAAUUUUGGAGGAACUACAGAAUGCGGCUAUCCACACACAAAGGG
As to B4, the Kd was 50.7 ± 1.6 nM in the data set with IMP3 dKH1-2, 29.2 ± 1 nM with IMP3 dRRM1 and 3.5 ± 0.7 nM in the data set with IMP3 full-length [2].

B5: 101-mer GGC<->CA (ssRNA)
RNA: B4 RNA with A56G, C57G, A58C, A59U, U60A, G82A, G83C, C84A
Regarding B5, the Kd with IMP3 full-length [1] came out at 15.4 ± 0.6 nM.

B6: 101-mer GGC->UG (ssRNA)
RNA: B4 RNA with G13U, C15U, A16G, C81U, G83U, C84G
As to B6, in the data set with IMP3 full-length [1], the Kd is 23.8 ± 0.7 nM.

B7: ANKRD17 exon 29 (ssRNA)
RNA: GGGUCUGUCCGAAGGCAGCUUUUUGUCACAGUUGUGAAGACAUCCAAUCGCCACACAACAACAGUCACAACCACGGCAAGCAACAACAACACUGCACCCACAAAUGCCACAUAUCCUAUGC
Turning to B7, in the data set with IMP3 full-length [1], the Kd was 1.6 ± 0.4 nM.

B8: (GU)5 (ssRNA)
RNA: GUGUGUGUGU
Consider B8, for which the Kd with IMP3 RRM1-2 stood at 49000 ± 3000 nM.

B9: GGC (CGG) 7-mer (ssRNA)
RNA: UCGGCAC
Turning to B9, the Kd in the data set with IMP3 KH1-d2 was 39000 ± 8000 nM; with IMP3 KH1-2 WT, 45000 ± 8000 nM. The binding result with IMP3 KHd1-2 was “no binding”.

B10: CA 7-mer (ssRNA)
RNA: AACACAA
With B10, the binding result with IMP3 KH1-d2 is “no binding”.

B11: 101-mer CA->UG (ssRNA)
RNA: GGGAGGGAGGAAGGCAAUUUUGGAGGAACUACAGAAUGUGUAUCGCAGCUAAAAUGUGAUUUUGGAGGAACUACAGAAUGCGGCUAUCUGUGUGUGAAGGG
In the case of B11, the Kd with IMP3 full-length [1] is 70.5 ± 3.2 nM.

B12: 101-mer allUG (ssRNA)
RNA: B11 RNA with G13U, C15U, A16G, C81U, G83U, C84G
Take B12: the Kd with IMP3 full-length [1] was found to be 61.1 ± 3.6 nM.

B13: 101-mer GGC<->CA_UG (ssRNA)
RNA: B11 RNA with U55C, U57G, G58C, A59U, U60A, C81U, G83U, C84G
B13: the Kd with IMP3 full-length [1] came to 34.9 ± 0.7 nM.
